Test results published in publication PMC9638933.
Substitutions are numbered along the chain they refer to. In names and notes the source's numbering stands.

T1: Ku D250A (Mycobacterium tuberculosis, UniProt P9WKD9 1-273, D250A)
T1 sequence: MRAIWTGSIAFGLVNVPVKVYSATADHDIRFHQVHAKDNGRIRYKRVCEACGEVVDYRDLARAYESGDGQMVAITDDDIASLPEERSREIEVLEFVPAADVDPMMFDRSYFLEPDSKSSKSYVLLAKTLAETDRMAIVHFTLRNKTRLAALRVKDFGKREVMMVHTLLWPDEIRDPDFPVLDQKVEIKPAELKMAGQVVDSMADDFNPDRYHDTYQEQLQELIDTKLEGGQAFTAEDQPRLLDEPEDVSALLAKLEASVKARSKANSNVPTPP

T2: Ku L251A (Mycobacterium tuberculosis, UniProt P9WKD9 1-273, L251A)
T2 sequence: T1 sequence with A250D, L251A

T3: Ku R262A (Mycobacterium tuberculosis, UniProt P9WKD9 1-273, R262A)
T3 sequence: T1 sequence with A250D, R262A

T4: Ku D247A (Mycobacterium tuberculosis, UniProt P9WKD9 1-273, D247A)
T4 sequence: T1 sequence with D247A, A250D

T5: Ku S258A (Mycobacterium tuberculosis, UniProt P9WKD9 1-273, S258A)
T5 sequence: T1 sequence with A250D, S258A

B1: Mycobacterium tuberculosis Ku L251A (natural protein)
chain: T1 sequence with A250D, L251A
B2: Mycobacterium tuberculosis Ku D250A (natural protein)
chain: T1 sequence
B3: Ku D247A (M. tuberculosis) (natural protein)
chain: T1 sequence with D247A, A250D
modifications: biotinylated with NHS-LC-Biotin for BLI only
B4: Mycobacterium tuberculosis Ku D247A (natural protein)
chain: T1 sequence with D247A, A250D
notes: The theoretical MW of 33.7 kDa equals that of KuWT
B5: Ku L251A (M. tuberculosis) (natural protein)
chain: T1 sequence with A250D, L251A
modifications: biotinylated with NHS-LC-Biotin for BLI only
B6: wildtype Ku (KuWT), Mycobacterium tuberculosis (natural protein)
chain: T1 sequence with A250D
modifications: biotinylated at multiple sites with NHS-LC-Biotin for BLI only (sites listed in Supplementary Table S3)
notes: The His tag is TEV-cleavable; Homodimer by SEC-MALS
B7: Ku D250A (M. tuberculosis) (natural protein)
chain: T1 sequence
modifications: biotinylated with NHS-LC-Biotin for BLI only
B8: Ku R262A (M. tuberculosis) (natural protein)
chain: T1 sequence with A250D, R262A
modifications: biotinylated with NHS-LC-Biotin for BLI only
B9: Mycobacterium tuberculosis Ku R262A (natural protein)
chain: T1 sequence with A250D, R262A
B10: Mycobacterium tuberculosis Ku S258A (natural protein)
chain: T1 sequence with A250D, S258A
B11: Ku S258A (M. tuberculosis) (natural protein)
chain: T1 sequence with A250D, S258A
modifications: biotinylated with NHS-LC-Biotin for BLI only
B12: 40 bp dsDNA (dsDNA)
DNA 1: CAGGGTAAGTGTGGAGGTGTAGGGAAGGGAATGTTGTCTG
DNA 2: CAGACAACATTCCCTTCCCTACACCTCCACACTTACCCTG

Columns and labels:
[1] = molecular target: Mycobacterium tuberculosis Kucore (entire C-terminus removed) (M. tuberculosis) (UniProt P9WKD9); assay: BLI; biotinylated Ku protein (25 ug/ml) loaded on streptavidin biosensors as ligand; 12.5 ug/ml LIG or POL as analyte; 37 C, 1000 rpm; 1x kinetics buffer (0.1% BSA, 0.02% Tween-20, 0.05% sodium azide in PBS); association 300 s, dissociation 300 s; grouped global fit; n = 4 technical replicates
[2] = molecular target: Mycobacterium tuberculosis Kumin (extended C-terminus removed) (M. tuberculosis) (UniProt P9WKD9); assay: as above
[3] = molecular target: wildtype Ku (KuWT), Mycobacterium tuberculosis (M. tuberculosis) (UniProt P9WKD9); assay: BLI; Octet RED96, 37°C, 1000 rpm; biotinylated Ku (25 ug/ml) loaded on streptavidin biosensors; LigD, LIG or POL as analyte (12.5 ug/ml), 300 s association, 300 s dissociation; 1x kinetics buffer (0.1% BSA, 0.02% Tween-20, 0.05% sodium azide in PBS); grouped global fit
[4] = molecular target: the molecule itself; assay: SEC-MALS; 50 uM protein; 50 mM HEPES pH 8.0, 1 mM EDTA, 200 mM NaCl; Superdex 200 Increase 10/300 GL
[5] = molecular target: the molecule itself; assay: SEC-MALS; 50 uM protein in 50 mM HEPES pH 8.0, 1 mM EDTA, 200 mM NaCl; Superdex 200 Increase 10/300 GL; MiniDAWN and Optilab
[6] = molecular target: T6, LigD (wildtype), Mycobacterium tuberculosis (M. tuberculosis, UniProt P9WNV3 1-759); assay: BLI; Octet RED96, 37°C, 1000 rpm; biotinylated Ku (25 ug/ml) loaded on streptavidin biosensors; LigD, LIG or POL as analyte (12.5 ug/ml), 300 s association, 300 s dissociation; 1x kinetics buffer (0.1% BSA, 0.02% Tween-20, 0.05% sodium azide in PBS); grouped global fit; details: both partners purified
T6 construct: The His tag is TEV-cleavable; also called wildtype LigD
T6 sequence (P9WNV3 whole entry): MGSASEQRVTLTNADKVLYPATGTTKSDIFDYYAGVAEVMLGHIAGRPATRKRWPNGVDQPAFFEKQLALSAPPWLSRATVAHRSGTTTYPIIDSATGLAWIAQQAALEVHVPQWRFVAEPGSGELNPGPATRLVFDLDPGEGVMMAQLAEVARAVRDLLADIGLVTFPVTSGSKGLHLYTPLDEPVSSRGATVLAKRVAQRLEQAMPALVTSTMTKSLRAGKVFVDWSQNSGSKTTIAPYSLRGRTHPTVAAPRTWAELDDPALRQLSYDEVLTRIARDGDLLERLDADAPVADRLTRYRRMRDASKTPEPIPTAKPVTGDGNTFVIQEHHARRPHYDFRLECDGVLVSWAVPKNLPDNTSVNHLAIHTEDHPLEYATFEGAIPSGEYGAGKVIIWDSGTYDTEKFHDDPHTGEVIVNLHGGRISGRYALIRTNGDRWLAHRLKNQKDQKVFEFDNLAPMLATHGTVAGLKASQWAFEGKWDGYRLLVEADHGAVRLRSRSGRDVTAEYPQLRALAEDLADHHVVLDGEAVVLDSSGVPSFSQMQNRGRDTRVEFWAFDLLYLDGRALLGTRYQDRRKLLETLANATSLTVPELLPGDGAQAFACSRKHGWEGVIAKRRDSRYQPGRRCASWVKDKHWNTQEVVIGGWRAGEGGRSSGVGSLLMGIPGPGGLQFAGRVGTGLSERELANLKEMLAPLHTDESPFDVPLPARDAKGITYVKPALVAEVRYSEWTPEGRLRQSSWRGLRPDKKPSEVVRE

[7] = molecular target: T1, Ku D250A; assay: EMSA; 5 mM Mg2+; details: protein: recombinant; tags: His (Ni-NTA purified; pMCSG7); chain copies: 2; label: 5' 6-FAM on strand 1; blunt
[8] = molecular target: T2, Ku L251A; assay: EMSA; 5 mM Mg2+; details: protein: recombinant; tags: His (Ni-NTA purified; pMCSG7); chain copies: 2; label: 5' 6-FAM on strand 1; blunt
[9] = molecular target: T3, Ku R262A; assay: EMSA; 5 mM Mg2+; details: protein: recombinant; tags: His (Ni-NTA purified; pMCSG7); chain copies: 2; label: 5' 6-FAM on strand 1; blunt
[10] = molecular target: T4, Ku D247A; assay: EMSA; 5 mM Mg2+; details: protein: recombinant; tags: His (Ni-NTA purified; pMCSG7); chain copies: 2; label: 5' 6-FAM on strand 1; blunt
[11] = molecular target: T5, Ku S258A; assay: EMSA; 5 mM Mg2+; details: protein: recombinant; tags: His (Ni-NTA purified; pMCSG7); chain copies: 2; label: 5' 6-FAM on strand 1; blunt

Molecule	stoichiometry N [4]	stoichiometry N [5]	Kd [6]	also measured
ligase domain of Mycobacterium tuberculosis LigD (domain or fragment)	–	–	–	Kd [1]: 274 nM; Kd [2]: 571 nM
LigD ligase domain (LIG), Mycobacterium tuberculosis (domain or fragment)	–	–	–	Kd [3]: 81.4 nM
polymerase domain of Mycobacterium tuberculosis LigD (domain or fragment)	–	–	–	Kd [1]: 291 nM; Kd [2]: 774 nM
LigD polymerase domain (POL), Mycobacterium tuberculosis (domain or fragment)	–	–	–	Kd [3]: 52.7 nM
B1	2	–	–	–
B2	2	–	–	–
B3	–	2	189 nM	–
B4	2	–	–	–
B5	–	2	134 nM	–
B6	–	2	196 nM	–
B7	–	2	219 nM	–
B8	–	2	125 nM	–
B9	2	–	–	–
B10	2	–	–	–
B11	–	2	258 nM	–
B12	–	–	–	Kd [7]: 140 ± 10 nM; Kd [8]: 1300 ± 190 nM; Kd [9]: 140 ± 10 nM; Kd [10]: 160 ± 10 nM; Kd [11]: 1340 ± 290 nM
